Starred links: 1 amine or outer side, 2 acyl side, 3 side chain; linkers in the order of their positions; H or OH if unused. Positions of bridges follow the written chain, without caps; N, C: chain ends. Non-standard residues stand in square brackets, D forms with d. Primed or numbered codes have the meaning given here. PyrS2(3) = (S)-3-amino-1-((pent-4-en-1-yloxy)carbonyl)pyrrolidine-3-carboxylic acid, stapling residue, C=CCCCOC(=O)N1CC[C@@](N[*:1])(C(=O)[*:2])C1; RdN(3) = (R)-4-(((allyloxy)carbonyl)(methyl)amino)-2-amino-2-methylbutanoic acid, stapling residue, C=CCOC(=O)N(C)CC[C@@](C)(N[*:1])C(=O)[*:2]; RdN″ = (R)-4-(((allyloxy)carbonyl)(methyl)amino)-2-amino-2-methylbutanoic acid (stapling residue), C=CCOC(=O)N(C)CC[C@@](C)(N[*:1])C(=O)[*:2]; B5(16) = 2-amino-2-(pent-4-en-1-yl)hept-6-enoic acid = 2,2-bis(4-pentenyl)glycine (stitching residue), C=CCCCC(CCCC=C)(N[*:1])C(=O)[*:2]; B5(18) = 2,2-bis(4-pentenyl)glycine (2-amino-2-(pent-4-en-1-yl)hept-6-enoic acid), stitching residue, C=CCCCC(CCCC=C)(N[*:1])C(=O)[*:2]; B5(4) = 2,2-bis(4-pentenyl)glycine = 2-amino-2-(pent-4-en-1-yl)hept-6-enoic acid (stitching residue), C=CCCCC(CCCC=C)(N[*:1])C(=O)[*:2]; B5(5) = 2,2-bis(4-pentenyl)glycine, 2-amino-2-(pent-4-en-1-yl)hept-6-enoic acid (stitching residue), C=CCCCC(CCCC=C)(N[*:1])C(=O)[*:2]; RdN = (R)-4-(((allyloxy)carbonyl)(methyl)amino)-2-amino-2-methylbutanoic acid, C=CCOC(=O)N(C)CC[C@@](C)(N[*:1])C(=O)[*:2]; GAbu = (S)-2-amino-4-((carboxymethyl)amino)butanoic acid, O=C([C@H](CCNCC(=O)[*:3])N[*:1])[*:2]; Qui = (S)-2-amino-3-(quinolin-2-yl)propanoic acid, O=C([C@H](Cc1ccc2ccccc2n1)N[*:1])[*:2]; Trp(7-F) = N[C@@H](Cc1c[nH]c2c(F)cccc12)C(=O)O; S7 = C[C@@](CCCCCC=[*:3])(N[*:1])C(=O)[*:2]; Bta = N[C@@H](Cc1csc2ccccc12)C(=O)O; αAllylPro = C=CC[C@@]1(C(=O)O)CCCN1; tBuAla = CC(C)(C)C[C@H](N)C(=O)O; 3Thi = N[C@@H](Cc1ccsc1)C(=O)O; S8 = C=CCCCCCC[C@](C)(N)C(=O)O; 2Nic = not defined here; Dap = NC[C@H](N)C(=O)O; Aib = CC(C)(N)C(=O)O
T1: full-length beta-Catenin (Uniprot ID P35222) (Homo sapiens (Human), UniProt P35222 2-781)
T1 construct: the AlphaScreen assay uses a Histidine (Nickel Chelate) detection kit, so a His tag is likely there; also called B-Catenin; bCat
T1 sequence: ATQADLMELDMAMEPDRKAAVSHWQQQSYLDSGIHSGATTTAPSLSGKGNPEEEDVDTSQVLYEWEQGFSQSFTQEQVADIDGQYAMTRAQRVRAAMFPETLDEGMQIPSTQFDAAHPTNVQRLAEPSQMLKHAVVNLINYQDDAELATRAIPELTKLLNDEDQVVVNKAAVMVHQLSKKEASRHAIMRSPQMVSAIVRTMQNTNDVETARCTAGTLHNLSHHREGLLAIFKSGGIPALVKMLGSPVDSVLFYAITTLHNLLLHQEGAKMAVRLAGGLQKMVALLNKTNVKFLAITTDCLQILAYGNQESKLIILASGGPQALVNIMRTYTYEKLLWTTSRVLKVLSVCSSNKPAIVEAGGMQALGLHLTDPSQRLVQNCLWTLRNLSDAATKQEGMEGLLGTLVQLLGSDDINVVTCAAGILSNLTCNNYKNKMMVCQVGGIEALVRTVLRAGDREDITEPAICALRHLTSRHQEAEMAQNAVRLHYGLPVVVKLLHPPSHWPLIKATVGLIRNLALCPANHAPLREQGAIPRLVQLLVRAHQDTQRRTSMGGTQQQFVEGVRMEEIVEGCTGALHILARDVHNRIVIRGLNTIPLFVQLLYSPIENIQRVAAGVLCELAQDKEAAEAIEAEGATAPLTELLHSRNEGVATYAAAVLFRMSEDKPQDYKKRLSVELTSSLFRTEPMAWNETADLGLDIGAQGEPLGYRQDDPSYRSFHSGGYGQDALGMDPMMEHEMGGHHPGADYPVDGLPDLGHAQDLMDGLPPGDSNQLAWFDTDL

T2: B-cat-Halo (beta-catenin HaloTag construct expressed in HEK293 cells) (UniProt P35222 1-781)
T2 sequence (looked up): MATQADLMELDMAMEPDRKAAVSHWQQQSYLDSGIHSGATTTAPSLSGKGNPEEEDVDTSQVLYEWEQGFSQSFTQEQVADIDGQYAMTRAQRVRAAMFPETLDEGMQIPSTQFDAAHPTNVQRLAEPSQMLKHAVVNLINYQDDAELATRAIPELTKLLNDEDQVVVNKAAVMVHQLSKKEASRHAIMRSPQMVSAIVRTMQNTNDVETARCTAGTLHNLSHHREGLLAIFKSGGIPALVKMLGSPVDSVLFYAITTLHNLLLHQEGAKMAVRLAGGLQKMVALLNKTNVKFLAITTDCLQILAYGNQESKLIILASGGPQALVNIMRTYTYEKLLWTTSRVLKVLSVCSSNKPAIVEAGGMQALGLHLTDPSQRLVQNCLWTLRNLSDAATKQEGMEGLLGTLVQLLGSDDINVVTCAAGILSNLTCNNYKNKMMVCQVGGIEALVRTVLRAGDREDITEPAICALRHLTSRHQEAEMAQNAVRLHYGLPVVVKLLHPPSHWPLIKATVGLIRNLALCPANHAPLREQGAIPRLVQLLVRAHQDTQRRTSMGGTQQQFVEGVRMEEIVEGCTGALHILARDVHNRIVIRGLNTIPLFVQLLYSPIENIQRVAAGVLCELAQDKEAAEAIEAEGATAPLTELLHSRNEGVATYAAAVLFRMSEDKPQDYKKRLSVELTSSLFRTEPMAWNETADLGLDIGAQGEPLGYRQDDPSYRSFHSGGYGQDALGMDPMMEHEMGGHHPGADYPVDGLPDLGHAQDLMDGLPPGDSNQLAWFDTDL

B1: I-154 (peptide)
peptide: ADIXDEAAFAXFWA
modifications: not fully specified; as printed: Ac-Ala-Asp-Ile-RdN-Asp-Glu-Ala-Ala-Phe-Ala-S7-Phe-Trp-Ala-NH2; N-terminal acetyl, C-terminal amide; RdN(4), S7(11); staple RdN-S7 by olefin metathesis
notes: stapled peptide
B2: I-155 (peptide)
peptide: ADIXDEAAFAXFWA
modifications: not fully specified; as printed: Ac-Ala-Asp-Ile-RdN-Asp-Glu-Ala-Ala-Phe-Ala-S7-Phe-Trp-Ala-NH2; N-terminal acetyl, C-terminal amide; RdN(4), S7(11); staple RdN-S7 by olefin metathesis
notes: stapled peptide

The binders below were run against T1, full-length beta-Catenin (Uniprot ID …) (assay: AlphaScreen competition; full-length beta-catenin with biotin-TCF4(10-53) probe as competitor).
Description: Equal volume of the titrated peptide was added to the plate and incubated for 15 minutes at 20° C. Then 4 uL of donor and 4 uL acceptor beads at 10 ug/mL were added to the plate, for a 16 uL reaction pool and protected from light for 60 minutes at 20° C. prior to read. Reads were performed on a CLARIOstar plate reader (BMG Labtech) in duplicate, and data were fitted to a 1:1 binding model with hill slope using an in-house script. All provided concentrations are final concentrations.

| EC50 [nM] | Binder |
| --- | --- |
| 828 | B1 |
| 153 | Ac-ADI[RdN(3)]DEAAFQ[S7]FWA-NH2 (staple 4-11, stapled peptide composition) [I-153] |
| 752 | Ac-ADI[RdN″]DEAAFA[S7]FWH-NH2 (staple 4-11, stapled peptide composition) [I-152] |
| 398 | Ac-ADI[RdN″]DEAAFQ[S7]FW-NH2 (staple 4-11, stapled peptide composition) [I-148] |
| 66 | Ac-[αAllylPro]DA[B5(4)]DEAAFV[S8]F[Bta]Q-NH2 (staple 1-4, 4-11, stapled peptide composition) [I-144] |
| 86.5 | Ac-[αAllylPro]DA[B5(16)]DEAAFV[S8]F[Trp(7-F)]Q-NH2 (staple 1-4, 4-11, stapled peptide composition) [I-166] |
| 733 | Ac-[αAllylPro]DA[B5(4)]DEAAFV[S8]F[Qui]Q-NH2 (staple 1-4, 4-11, stapled peptide composition) [I-143] |
| 116 | Ac-[αAllylPro]DI[B5(5)]DDAAFQ[S8]FWH-NH2 (staple 1-4, 4-11, stapled peptide) [I-175] |
| 328 | Ac-[Aib]DI[RdN]DEAAFQ[S7]FW-NH2 (staple 4-11, stapled peptide composition) [I-147] |
| 116 | Ac-[αAllylPro]DI[B5(5)]DDAAFQ[S8]FWH-NH2 (staple 1-4, 4-11, stapled peptide) [I-174] |
| 734 | B2 |

These binders were tested against T1, full-length beta-Catenin (Uniprot ID …) (assay: fluorescence polarization competition; full-length beta-catenin with 5FAM-TCF4(10-53) probe as competitor).
Description: The plate was incubated protected from light for 60 minutes at 20° C. prior to read. Reads were performed on a CLARIOstar plate reader (BMG Labtech) in duplicate, and data were fitted to a 1:1 binding model with hill slope using an in-house script. All provided concentrations are final concentrations.

| EC50 [nM] | Binder |
| --- | --- |
| 5000 | B1 |
| 2140 | Ac-ADI[RdN(3)]DEAAFQ[S7]FWA-NH2 (staple 4-11, stapled peptide composition) [I-153] |
| 5000 | Ac-ADI[RdN″]DEAAFA[S7]FWH-NH2 (staple 4-11, stapled peptide composition) [I-152] |
| 2770 | Ac-ADI[RdN″]DEAAFQ[S7]FW-NH2 (staple 4-11, stapled peptide composition) [I-148] |
| 146 | Ac-[αAllylPro]DA[B5(4)]DEAAFV[S8]F[Bta]Q-NH2 (staple 1-4, 4-11, stapled peptide composition) [I-144] |
| 2160 | Ac-[αAllylPro]DA[B5(16)]DEAAFV[S8]F[Trp(7-F)]Q-NH2 (staple 1-4, 4-11, stapled peptide composition) [I-166] |
| 2270 | Ac-[αAllylPro]DA[B5(4)]DEAAFV[S8]F[Qui]Q-NH2 (staple 1-4, 4-11, stapled peptide composition) [I-143] |
| 1760 | Ac-[αAllylPro]DI[B5(5)]DDAAFQ[S8]FWH-NH2 (staple 1-4, 4-11, stapled peptide) [I-175] |
| 1640 | Ac-[Aib]DI[RdN]DEAAFQ[S7]FW-NH2 (staple 4-11, stapled peptide composition) [I-147] |
| 1760 | Ac-[αAllylPro]DI[B5(5)]DDAAFQ[S8]FWH-NH2 (staple 1-4, 4-11, stapled peptide) [I-174] |
| 5000 | B2 |

These binders were tested against T2, B-cat-Halo (beta-catenin HaloTag …) (assay: cell-based or functional assay).

| NanoBRET Abs IC50 [nM] | Binder |
| --- | --- |
| > 20000 | Ac-[αAllylPro]D[tBuAla][B5(18)]D[GAbu]AAFL[PyrS2(3)][3Thi][Bta]Q-NH2 (staple 1-4, 4-11) [I-1841] |
| 22300 | Ac-[αAllylPro]D[tBuAla][B5(18)]D[GAbu](Ac)AAFL[PyrS2(3)][3Thi][Bta]Q-NH2 (staple 1-4, 4-11; also: double bonds not converted) [I-1840] |
| 6300 | Ac-[αAllylPro]D[tBuAla][B5(18)]D[Dap](2Nic)AAFL[PyrS2(3)][3Thi][Bta]Q-NH2 (staple 1-4, 4-11; reading uncertain) [I-1845] |

Source: patent US20240116985A1 (published 2024)
